For the assay, the target named is T1, GFP-fused SYP132 (SYNTAXIN OF PLANTS132) expressed under its native promoter (Arabidopsis thaliana, UniProt Q8VZU2 1-304).
T1 construct: SYNTAXIN OF PLANTS132 (SYP132), Arabidopsis thaliana, At5g08080; also called GFP-SYP132; SYP132p:GFP-SYP132; source: Arabidopsis SYP132p:GFP-SYP132 transgenic line, in leaf lysate
T1 sequence (looked up): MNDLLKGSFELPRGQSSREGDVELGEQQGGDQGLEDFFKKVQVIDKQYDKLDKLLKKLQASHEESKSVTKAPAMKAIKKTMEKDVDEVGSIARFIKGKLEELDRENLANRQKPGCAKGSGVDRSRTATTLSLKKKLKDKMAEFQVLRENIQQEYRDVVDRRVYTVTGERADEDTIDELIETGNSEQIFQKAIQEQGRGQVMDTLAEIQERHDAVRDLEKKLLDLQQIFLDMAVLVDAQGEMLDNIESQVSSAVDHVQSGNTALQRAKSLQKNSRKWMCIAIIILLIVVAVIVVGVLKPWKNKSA
The assay can be described thus: co-IP; GFP-Trap agarose beads saturated with GFP-tagged bait from Arabidopsis leaf lysates; plants treated 24 h without or with Pst DC3000 in 10 mM MgCl2; binding buffer PBS pH 7.45, 0.01% Triton X-100, 0.05 mM DTT, 0.01% CHAPS, 1 h at 4°C; washes with additional 150 mM NaCl; bound proteins detected by immunoblot. The settings on record: partners not purified. On the technique in general: In western blotting, separated proteins are transferred to a membrane and probed.

B1: PM H+-ATPase 1 (AHA1), native (natural protein, UniProt P20649 1-949, looked up)
chain: MSGLEDIKNETVDLEKIPIEEVFQQLKCTREGLTTQEGEDRIVIFGPNKLEEKKESKILKFLGFMWNPLSWVMEAAALMAIALANGDNRPPDWQDFVGIICLLVINSTISFIEENNAGNAAAALMAGLAPKTKVLRDGKWSEQEAAILVPGDIVSIKLGDIIPADARLLEGDPLKVDQSALTGESLPVTKHPGQEVFSGSTCKQGEIEAVVIATGVHTFFGKAAHLVDSTNQVGHFQKVLTSIGNFCICSIAIGIAIEIVVMYPIQHRKYRDGIDNLLVLLIGGIPIAMPTVLSVTMAIGSHRLSQQGAITKRMTAIEEMAGMDVLCSDKTGTLTLNKLSVDKNLVEVFCKGVEKDQVLLFAAMASRVENQDAIDAAMVGMLADPKEARAGIREVHFLPFNPVDKRTALTYIDSDGNWHRVSKGAPEQILDLANARPDLRKKVLSCIDKYAERGLRSLAVARQVVPEKTKESPGGPWEFVGLLPLFDPPRHDSAETIRRALNLGVNVKMITGDQLAIGKETGRRLGMGTNMYPSAALLGTDKDSNIASIPVEELIEKADGFAGVFPEHKYEIVKKLQERKHIVGMTGDGVNDAPALKKADIGIAVADATDAARGASDIVLTEPGLSVIISAVLTSRAIFQRMKNYTIYAVSITIRIVFGFMLIALIWEFDFSAFMVLIIAILNDGTIMTISKDRVKPSPTPDSWKLKEIFATGIVLGGYQAIMSVIFFWAAHKTDFFSDKFGVRSIRDNNDELMGAVYLQVSIISQALIFVTRSRSWSFVERPGALLMIAFVIAQLVATLIAVYADWTFAKVKGIGWGWAGVIWIYSIVTYFPQDILKFAIRYILSGKAWASLFDNRTAFTTKKDYGIGEREAQWAQAQRTLHGLQPKEDVNIFPEKGSYRELSEIAEQAKRRAEIARLRELHTLKGHVESVAKLKGLDIDTAGHHYTV
notes: Plasma membrane H+-ATPase 1 (AHA1), Arabidopsis thaliana, At2g18960; detected with anti-AHA1 antibodies at ~100 kDa; also called AHA1 isoform; plasma membrane H+-ATPase AHA1; source: endogenous, Arabidopsis leaf lysate
Consider B1, for which the “fold change of Co-IP bound/bait after Pst DC3000 infection relative to buffer control” value was ~2.5 fold.

Source of the values: PMC9237740, “SNARE SYP132 mediates divergent traffic of plasma membrane H^+-ATPase AHA1 and antimicrobial PR1 during bacterial pathogenesis” (Plant Physiology, 2022).
